According to a protein production outcome set (Wang et al. 2014):

Test: label from the status in PepcDB records

## MENKRAIIAVVLSFIVLVGWGYLSEYMGWTPKSVPATEQKTAASAPAPSVVTSAPEAVTPAPAFSPSTGHEVTVTTPLYKAVLHSGGGVLRQFMLSRYHMGIDRDAAPVNLIESSAIRVAPLGLLVNGQPSWNTGQWAFEGGDLNLADGQTGTLRFVGSVDGLRVVRELEFHADSYLVTEKLHLAPEGDAPRTARVGFTLGTTSLTPGESQYNLTRVAWFADGSFSEKSSTGDLEKGVLIDGSIDWAGVMSNYFLAAVAPKDTRAVLKGKLEGGVYRVAVERPDQMVNPGNSDVIVCNYWFGPKERDLLNAAPNNLGKAIDLGWFGFIARPLVTLLDFFYKYVGNYGTAIILLTILIKLVFWPLSHKSYKSMEQMKKLQPMLAKVREKHADDREKMNEEMMRLYKTYKVNPAGGCLPMLVQIPVFFGLYQALLNAIELRHAPFIAHVPFTDIVWLADLSAKDPFYVTPLVMGATMFLQQKLTPPAGDPTQAKVMMFMPVVFTFLFLNFPSGLVVYWLCNNVLSIAQQWWILRKA
  protein production: failed

## MGSIDRYIFRTTLVSFAVVMGSLTGVIWITQALRGIDLMTSQGQTIITFLGLTGLAVPVLVLVIAPIALMIAVAHTLNRLATDSEIIVMNAAGLSPIRLFRPFFYATMVVAALVIIIGAYIAPDGLRRIARWDSEITADVLANVLQPGRFAQLEQGLTIRVRERQPGGLLVGVFIDDARAPNERVSIIADHGTVVKNDKGSFLVLEDGHLERFQTGKQEPALVAFSRYAFDMSKFSRARDVAYGIRERYLWELLWPAENDPLLARLPTEFRSEMHDRLLAPIYPFFFAAVAFAFLGLARTTRQSRNFSMAGAVLVAFVVRLAGFALSVIANKTPYVAGLQYLLLFVATGTCLWLINRNVVIEPPARVTEALNAFNASIARLIRRPVPA
  protein production: failed

## MLLRSPSYAGKAAQAQEGDAYGVYQLATLLIGMDAEDETSCLLAADALYRLGRLDDAHKSLLVALSQRPQAAPVLVRLALLQLRRGFCYDANQLVKKVAQSGDTACLQHMLDIFHHEDLQLLQDHCHTRALSILRARPGGSDSEAHTREAIAYLSLAIFAAGSGGSESLLVRARCYGLLGQKKTAMFDFNAILREEPGNVKALCGRALVHLALDQLQEAVDDMVSALKLDPGTVTPEILSLKTEVQLPLTQGLYTRCRVLLNQCLHTGVPLREEDTQGLLATGKALIRINATQPSWRLLLTDILTGLGKYQEAGTHLQEALHLTPSSEAAQARQGLLQLKKGDVSAAAHGLQCLAERDTQDLGFLLRLLDSPERQSLVQTAAKEASNILDLGNPGQALSYCSLAILAGGNNPYHLRLRVACLTQLREYDRALRDLDRVLQHPAEDSDLPRRSEDFCTRGRLLLSLGDKDGAAGAFTQALALAPAQAQNSLLEQPGQAMTASVFLIHGQRCLEEQHFEEAWTAVQNGLLVDPSHSGLKKLKLRTRKVATSGCRLH
  protein production: failed

## MNYSKLKSIPIYFSLLAISVSNVGCVQQDVEANLTSKTLSENLDSKALRHKNKEQDIESLLAQLTLEEKISLVHANTKFANAAVERLGIHSMEMSDGPHGVRRQISRDSWKPAGWDDDQATYLPPLTAVAASWDPQMATLHGNVLGSEARHRNKDVILGPGVNLARLPLYGRNFEYLGEDPFLAAKLVVPEIIAIQANDVAATVKHFALNTQELNRHGVDATPDERTLREVYLPAFEAAVKEGNTYAMMGSYNNVYGTNANQNKHLIMDILKGEWGYQGLLMTDWDVDINTYDAAMNGLDLEMGTRAKSYDDYFLAKPLLKMIQSGKVPVAVLDDKVRRILRVQLSIGMMDKQRFSGQRNTQEHRDFSRQIATQGVVLLKNESVASANHTNTVLPLDKNKVKNILVLGPNADKKHGSGGGSSQVKSLWEITPLQGLKDKLGDNVEIQFMRARSQSGVQPIAEDFVKTNNRGTGTPAWRLIEYKTKDRNKKAAHYGWLPESSYNSPLGDVIQHINLKADIMPLASGEHVLKLGGKGNVNLVINGKEVINTTLSGDKTYQHKLTLKQGKKYVFTLGYDGADNVVLGWNAPGSPFSTKDEYLAAAKNADAVIYYAGLSHADDRESKDRSNMVLPNNQDDIISDLIAVNSTTVVFVIGGSAVEMPWAEQANAIVWGWYGGMEAGHSYADILFGDVNPSGKMPITLPKKLTDTAPIVLNDYNEKTSTYPEGVFIGYRWFEQQNIEPLFPFGHGLSYTHFSFGDISLNKDVISAGETITASVKITNTGKVAGAEVVQLYLHDEESSVPRPVKELKGFEKVFLQPGESQTVMLTLTQRDLSFWDVNTKNWLAEQGQFSVHIGSSVNDIKTSTSFSYQ
  protein production: failed

## MIIRIKHYGEVKIEDSKNLLLNLIENRIGIDNICNGKGTCGKCKVRFRQGVPEATSADLRYLSVEELEEGVRLACQVKPQKGMEIDVTLSNSFDRKLEHHHHHH
  protein production: not failed

## MDLDLRKLRYFVAVADRLHFGRAADALHIAQPALSRQIRALEQDLGASLFTRDSHGVTLTDAGRQLLDDAGPLLASAHAVRRRVSVAERGGRRLVVGFRAGIPVIPATRVFEAQHPDVVVDVQRMEWDDQASMLLDGRVDVAYVRLPLAETGLRLAPLYTEPLMVALPAGHRLAGKDEVTEADLAGEPLIWHADASRQPTRRPHPDSGLRVRGVEEKLEHVAAGRGISFVGRSEAVFFSRPDISYVPVPDLAPDQVCVAMAASRTSPLADSFFAAAQTTAEITAECGNYEMWRLASDAASKRD
  protein production: failed

## MTDQTYCDRLVQDTPFLTGHGRLSEQQVDRIILQLNRYYPQILTNKEAEKFRNPKASLRVRLCDLLSHLQRSGERDCQEFYRALYIHAQPLHSRLPSRHALQNSDCTELDSGSQSGELSNRGPMSFLAGLGLAVGLALLLYCYPPDPKGLPGTRRVLGFSPVIIDRHVSRYLLAFLADDLGGL
  protein production: failed

## MSSPAILLFDIDGVIRDVAGSYRRALQVTVEHYSGWQPMAADIDALKAEGCWNNDWDASLELLRRHENDVPSRSELIEVFSGFYFGGDPEGDPAEWQGFIGDEPLLVTRAFFDELTRHDIRWGFVSGAEPPSARYVLQQRLDLKDPPLIAMGDAPDKPDPTGLIRLAEQMAAGEVPHWIAYIGDTVADVQTVLNARKRRPELPWRSLAVAPPHVTDVSTYHRQLQDAGADRIVGATRELLPMLLDELA
  protein production: failed

## MNLEPPKAEIRSATRVMGGPVTPRKGPPKFKQRQTRQFKSKPPKKGVQGFGDDIPGMEGLGTDITVICPWEAFNHLELHELAQYGII
  protein production: not failed

## MLRQIRRNALSNFLSLWNEAATTSLGFFWMALWAFILGYVISSLIQVLVTRRKMQQAMGEDGPRSIALGTFFGFISSSCSFSALATTRAIFNKGAGLAPSLAFMLASTNLVIELGIVIAVFLGWQFVVGEYVGGVLLILVTWLLIRLTRPRRLEAQARRKMDDGDGDGGNSDKSWKEKITSKEGWQAIAQTYVMEWQMVWKDVLIGFTVAGIISAMVPQSFFEALFIGAGGENAANPGFLAVLSQTLVGPIAAFFTFIGSMGNIPLAAVLFAQGVSFAGVMAFIFSDLVVLPVLRINASYYGWKMALYILALMLVGIVTVSLLMHYSLALLGMLPDFSGQTSMGEREFFKWNYQAVLNILFLTATAILLWFWRQGQKQHSHDHHHHDHDHGGSSLTDKVLSVLVVVALLWLAGGVVVPLF
  protein production: failed

## MKIIVVGCGKIGYTIAKVLSEKKDIDVTVVDNNPNIFDKMVEPIDVIFISGNGANEKTLIEAGAKDADLIVSTTNADELNVLCCIMAERLGTKHSIARVRNPEYMLEFNKLWKDLGIDMVINPERQTAREISRILRYHAADDIVTFIGDRVELVSFKVSETPEYFVGKSVSQIFDNNMGILLAIVERENQALIPNGDLIFKESDIIWIMGRPSQIMKFFTLIKKGPKKGQEIMVIGGGKITHYLVELLNRHTTKANIKIIKKDRSKCESLYEALSSASLERRCLFIHGDGTNEELLIDEGIDTMDACVCLTDRDEENVFISLYAMRRGVKKVITKINYIHQNMAKSLGLWLGNIITPQYITAKTVIRYVDGLSGAVGRNIMTIHQIYSGDDGNVDAIEFQVNKKAKCIDTPIKKLKLKKGILIGCISRDFDIIIPSGETEIHIGDRVIIFSKNNDIRDLDDILEN
  protein production: failed

## ASETQQWKTLEDTRSALMGVYGLTRAALADNNTHWICGDLRKGDFTVYKRSDLQAVSDNELNKPYDLLKKVSNWRRFYAVINAASVFMEKAPRTVELDRSYSEQNLKYDIAQVRALRAFAYFYMVRIWGDVPLVTYSYDNGTFPSMPRTDAQTVLSYAKAELLTAIEDLPYQYGTQTNLYYGSYGAQWQGKLFNKLSAYSVLAHICAWQGNYAEAETYSAFIIDHASEINAKYTSIADLTSETGLFYSNASVKGSRILGFNFAHNDNEATQSGHLEQLTLAYPLVQKSYPEIYISKDSLFSIFTNFDDLRFGIIDTIKYSSYYVQNLNEETPVFSKIKIIQDGSAKDNDFGVFGSSIVFTRLEDITLLRAEALCALNRSTEAVSYLNMIRTNRGLREVSFKKDFGNNRESLIAEIFEERRRELMGEGWRWYDLVRRQKLMKDNEAFLRLISSGGIYWPVSEDIITANSQIEQNEFWK
  protein production: not failed

## MASFCNSWKRKHNEAIKLSEEIDGMILERSSLAETSSYARGHASYMRRKITILANGVQTLKNLLAESQGKSISAKEMSRCKDMVEDLRSKAYQMASALDMLKFSNIGSLLGQDDIMSRVIDMDNQEIVGFQRTTMKGKLKGVMHLKREALAMNMELGLQTRLIDRLDHHVDVSASDVEELQRSIDTGVCMTLLLSVVVVVFGLSEFVKFGRRRILG
  protein production: failed

## MLKLFKGIYAIFLCVRECIINLFFILFLLTGFASIAFLVNGSDTNKSKEPNEKVALRLNLSGYLTDNHDDFAHRLIQSELTNDESLKASTFDVVRAIGKAAKDPNITGIVLDLSKFEGSDHSSLSFIGSELKAFKTSGKPVIAIGENYSQSQYYLASFADKIYLNKAGSINLQGLNFSSLYFKALLDKIDAVPHIFRVGTYKSAVEPFLRNDMSDEAKQNAQTLLNSIWHQFRTDIAENRMIAVDQVLPEPKSLIEKYKAVNANDAQYALNQKLVTDIGSKAEIEQALIEQFGKNEKGIYQHINYADYALNLTDRFAVNAEHKIAVINVEGEIISGKSKERSAGSETISELLRQAREDNNVDGVILRVNSPGGSVVASEIILQELQSIQQAGKPVVTSMGGLAASGGYWISATSDKIIASPNTITGSIGIFGLAMTFEKTAKHLGISEDGVATSPLAKTSSLQHLSNEHAELIQINIENGYDAFLDLVSRGRNMSKAEVDKVAQGQVWSGEDALKHGLVDQLGDFHTAYDVLTDLINQKRKAKGENEIKHFTAQWFIESDKGLFSSLLKNIGFKAKSTLAVWLGLPFVPQTQQAAELLQKFNDPQNTYLYCLTCGTIK
  protein production: failed

## MPVQTYPVDIVIRAYDRPGLLRDVSQVLLNEKINVLAVNTRSNKEDNTALMSLTIEIPGLDALGRLLGRISQLPNIIETRRNRTPLEHHHHHH
  protein production: failed

## MAERTLVKPCTSVPPTMVRVPNVTRADALAAARNPLALIAERWTPAPRTVRRAALAALVMAVVIVVTGGAVRLTGSGLGCPTWPKCTDDSLTTTSAMGFHGVIEFGNRMLTYVLCAAVGWAIIAARSQKPWRRSLTRLGWAQFWIVMSNAILGGIVVLVGLNPYTVAAHFLLSTALIAVATLMWQRACEGDGAPRPLVGKAVQQLVWFLVTASVLLIAVGTVVTGAGPHAGDSSDVERMPLDWETVSKLHAVLAWIVVTLTFALWFVLKAVDAPKGPLHRTRDLFLILLAQGVIGYVQYFTDLPEALVALHMLGSCLVWIGVLRVLLSLRERPEAVADLPGPSTESALTRA
  protein production: failed

## MKKRILSAVLVSGVTLSAAASVHAEDYDSQIAATNNAISNLASQQEAAQAQVATIQSQVSTLRTQKTELEAKNAELEKVSADLESEIQELSSKIVARQDSLAKQARSAQQNNTATSYINSILNSKSISEAITRITAISKVVTANNDLLTKQESDQKELAAKQEENQAAINTIAANKSELETTEAGLTTQQAELEAAQVTLAAELATAQNEKTSLVSAKSTAESVAASTAASVAQSQAIAESEATAQVVASSEAATSVASSEVAATSEAVAQPSETPVSETSTASEAAQEPASSETSEVQPESAAPAVSEAPASVAPVATSEAAPATSEAPASVAPVATSEAAPAVSEAPAPAAETHKVSAASTPNTYPVGQCTWGVKSLAPWAGNNWGNAKNWIASAQAAGHSVGTTPVAGAIAVWPNDGGGYGHVAYVTSASGANSIQVMESNYAGNMSISNYRGTFDPTSSAHGGSVFYIYPLEHHHHHH
  protein production: not failed
